assay: soluble on expression in E. coli; label from the status in PepcDB or PDB records

| Sequence | soluble on expression in E. coli |
| --- | --- |
| MAGDPMVRLNVKPTRMELNNLKERLTTAERGHKLLKDKRDELMRRFISLIRENNQLRKEVESYLIDNLKSFAVAKSLKNSQMVEELFSIPSKEIELFVEKENIMSVTVPRMHMNITSQNENSEYSYLSSNSEMDDVFATMNSLIYKLLRLAEVEKTCQLMADEIEKTRRRVNGLEYSIIPNLSETIHYIELKLEEAERANLVRIMKVKLEHHHHHH | not soluble |
| MAGDSTDKAFQNFAYLLFLRNILTKSNFSETKNKPEAYNQFLFQKLKKILNLFQILQFILENIHCKPGDRIAILFAYSNDLDRNVVKNVWNTADFGFYSHFLVFANVRFDVRQEEEILFHYSYLNATSSVFSKLPDSSLGFGNNATGSDSLKTIDVGKFYSNNQVPVCGSIVLILSKRYPNELKILEVSRKVQEHHGIVHVISSVFPSGGTQSKALYKLTSRTNGICAFQEDSQFSEVSDFINISSKYYDGWHLLSHIVGSLPISGTPYPIYSVNPRVSGLGSLVLPSLSVPFSGRFYFVVTVQDHGPIDTFRSINLSWYNAKSRSSNHFLISNGQKYEINREEWFDLDPVIYNMTLNYSYLTFQDIQIRVYSSRPPEDWLPCCDSTN | not soluble |
| MAGEAGQPSEPLNLLAGMAAAPWDYDFFQALRRIECESPQLPRLGHSVRLADDPLRLGQKPDCTFAPSTLASVSQAGTAAVPRLDQFFFGLTGPNGPLPLHLTEYARERQRNVNDATFKRFMDVFHHRLLTLFYRAWAEARPEISHDRIDDDYWSARLAALSGRGMPSLRGREPLADTARYYYTGHLAAQTRYPDGLRVILAEYFEVPVAVEEYVGQWLELPERSRLGVDSTSLGMDVCLGTHVWDRQHKFRLRLGPLDLDQYQRFLPDGDHFVELAAWVAEYLGEELDWDVNLVLQRHEVPPLGLQGGGRLGFNTWLGDPGQDARDLLLARQYATARPHEHKEKEHE | not soluble |
| MAGKLIANLIVMGSGIIGRAMLQAYRKALDNANKTGVAHETINNIRRASKTMTEQEARQILGVSEQSTWEEIAQRYDNLFERNAKSGSFYLQSKVHRAKECLENVYQKNKQDGTPP | soluble |
| MAGRKKTTACKLFVLDTNVLLHDPTCLYRFEEHDVFIPIITLEELDTHKKGMSEVARNARQASRFLDDIISGNELNISEGIPLKHASRDAASGKLILQTQAINGTLPSSLPMGKADNQILGIVMALKSHYQGRAVILVSKDINMRIKARALGLEAEDYFNDKVLEDTDVL | not soluble |
| MAGRLREMRCELSFLKNADGSACFSQGATCIWASCSGPGDVHASKASDEAMTLDISYRANCGDNKFNVLNNIIHSTLSNAINLELFPHTTISVTVHGIQDDGSMGAVAINGACFALLDNGMPFETVFCGVLIVRVKDELIIDPTAKQEAASTGRVLFSVCKGSDGHPEVCAMDAIGHWDFIQLEAAWSLAQPSASAIFDFYKTVMKRKLSVDEQLEHHHHHH | soluble |
| MAHHHHHHMADTQPVPATVTSAHGAHAEAFGESFIVTLSSENLRVQLLSHGAALNSVQVRKPHPAASATASASATAEQDDEWLEVCLGYTNPEEALSADAVIGHTIGRYAGRIANGEFEIANTTYTLAKNFGPHNLHGGPVGFQHQEWKYLLSDGRDETGVAFHLVSPHMDQGFPGELFVTATYSIIKSAPVPTLKYVLQASLSDNTPVDMTVINLTNHAYWNLNGVPRPAAADAVAPLPRSIANHYLQLQSKYFAVTDELSIPNGDMRPVEGTPHDYSALRCVAEGMEATKEEGRDGGGYDDPVALETWDSTLREAALVYSPATKLRMQVCTTNPAIVVYTANHLPADASGSKGQRFQQHSAICLECQYFPNSPNVRAFPSTVLKKGEAYNETTIHAFQFMNADITPEEKLLRRQ | soluble |
| MAHHHHHHMAECSGVADDDTTKKLLLEGDSALRQGRSYYQEALAKYTEALTHNPNSIRGLYSRAELLSMLRRRDACMSDLDQLLKLDSKHQRGLVLRSALYSQAGQLKEAVRDVEKLVEVMSEGGKAAKVQEYKAKLQQLRRYAEVWIPLQLKLQAAKQGAVTLSRDEQCACVGFLHDMIREFAKDNAGLRLQRAECALACGDNQAASEELKYVVQREPQNLDAVALGARALRALGALEQARRELRRCLSLDPEFALCAQLHKLVREQIRVTQGVEKALEEKDYGKVLKLIEGAMRFEENPPYKDQLLRWRCDAAVGMQDTKDGLPACDEAIQLYSPEDPTVVSILLQKLELYLMDGNVERAEEMLQRAQQLQPNDGKVNEYKRKMERIKRVGLRKNYYKILGVKKTADSSEIRRAYRHLAKTFHPDKLASQELSKEERAEADKRFRDINEAKEILLDDEKRARYDNGEDPTKPPGQDEHAFHGQPFNFPNEMFGQGGRFQQFYFHFD | not soluble |
| MAHHHHHHMAESAVLTPLSARHTVSPRDRSALATGISTLSSPTEETIEVDGATTTPSLPPETRVNVTEKLSDDGAERWPGDPEPPSQGCVASSSAANAHLPISSPALVRDEGHAHITAADYADRQRLLYHITYLSTQLQRAQLQVEDLTRTVCVLRGAVGDSAAATVAKAAVKEDATSAAVLAAKEERDVHAALQASLALFDPVIAQTQIYRLDDALAQVGLLREAELAQLRKANAALQDHRTFVSRLSEELAQLRSKTATLEQEKQRTETQLTAAVLEVEQLRYEERRLNNRVAGLEELAQDGTWMSNVRVVSAAAASTQASVSQQQPLVRLEREEQLARQALLLHVFWDPVLIAFDAGLTWLSDSAALQAKGSAAQEQPVAPGGAKAFVGERDLISLAQAGILVETPALPTDADLLLLQRQQEEVTQLRSRVQLLQERNRVGQLENERLQFLYEGEVRRNERMAKDHAAQLQQAYDEVVRDRQYIMNKLKQEVEDQIRLAYEDGRAYEQSRAKSRRSQKAFRAGNAVL | not soluble |
| MAHHHHHHMAHVITRINAREILDSRGNPTVEVDLETNLGIFRAAVPSGASTGIYEALELRDNDKSRYLGKGVQKAIKNINEIIAPKLIGMNCTEQKKIDNLMVEELDGSKNEWGWSKSKLGANAILAISMAVCRAGAAANKVSLYKYLAQLAGKKSDQMVLPVPCLNVINGGSHAGNKLSFQEFMIVPVGAPSFKEALRYGAEVYHTLKSEIKKKYGIDATNVGDEGGFAPNILNANEALDLLVTAIKSAGYEGKVKIAMDVAASEFYNSENKTYDLDFKTPNNDKSLVKTGAQLVDLYIDLVKKYPIVSIEDPFDQDDWENYAKLTAAIGKDVQIVGDDLLVTNPTRITKALEKNACNALLLKVNQIGSITEAIEACLLSQKNNWGVMVSHRSGETEDVFIADLVVALRTGQIKTGAPCRSERNAKYNQLLRIEESLGNNAVFAGEKFRLQLN | not soluble |
| MAHHHHHHMALPPATLQSPAVPDGQQHLGCSGGSGHLSVAALDQSRTPLYSAERRASLCDESGALAAVSLSADASRPTAANFVKGELIGKGSYGAVYRGMQRSNNRIIAMKEIRLPGVVEQQLRQSEKLAATAASPAGVSSPVLPASNSVKGESALAKEVAAIKRELTLLKQLNHPNIVRYLNDEVVDGTLRIYMDYVSGGSVTAALKSYGSFEEPQAAALCFQLLQGLVYMHRRGIIHRDLKGDNLLLETSSQLKIADLGTAKSIFSSATMTTSIVGTAYFMAPEVLQPSGAAVGTAADIWSVGCCLIEMMTGKPPLSDLPNQFTVMMAIGGSATVPLDKYIPADNTWSDEVLDFISQCLRANPAQRPTAVDLLQHSWFAKFLNVMHAPSMSTPATLDSMLTPTAPPIERPFTLSPQRQMVSPICSPNLTAALTPGYAGPQYSSGQPESSASSHTSRERKGKRDKRVSARRHARYSTSGATSATSRRSQESSQASTPQYSSGTRTRDGSAQSASLPRSHSHPGRQQGPSSKRRAHAHIVGHGLPRDDSRQSFSSEQAMPQHTCTPGSGGAGDGSGENKTKTAFLPAITHNGSVAPSPCGYSLDVSRCSRSLKNSGSSREPTKACLYTTDTENKS | not soluble |
| MAHHHHHHMATARSYFYYLDAHGNLFPVTDIKGLIDGTNIPAGPIQLRDRAFLDFFYLRLKRSDVEDAAACSNVSDRREEGELLLHSGAKLTPQEVVQHFPYVSICGPERNFLKAEEAPLVFVNYTSGHPKCKQQNGTLAFGESLWEDFQPQALVVTREGKLFHPITKLKNLIATQNGAGDAVPRGLVEAQVVKKLGLELVCDSAKSGYYVLEWKGQKQRIPYFDEL | not soluble |
| MAHHHHHHMCVSELRRLRGHGRNVYIIYDVAKGGTPPPRHFAPTSGWGMIVVPSPNVANYDEWAKQLQAARVIVNCPDEVDVKAICTWMKQGQDPGKQAEYWRIVEERMKRVGPILRYIFDGESYIDPLGAVNDALLAMKPSDVGEYFTLGGEKTWCSEDPCHKLVKIVRARTDEGAEVFLNASISADIGFRTADRLKKEMCARDLLLLILRSHGALASQALEKFGLRAFMYGEPVSALVKGLNELRSPERDEAQDSVLKVNHQGHPTRAVGLA | soluble |
| MAHHHHHHMDGEALFNHIASCSETGYLTMEDFVRWMSETATDKGQKNYESIDVDERAVMRKALLQLCERLEARCLNSLQMFRLASTMPRAYTERRADIYSLANPHRDALVTPVQLRRCIEEVLGGNPSPREMDALLSFFFPQLPLEEYRSRRDGDLEHALDLKAFQKKYHEMNKLLMLSEPSKQQQQTQQRQQE | soluble |
| MAHHHHHHMDINNIMEEVQAIKVLPHMMFNASKLKVLSDYVNVAFENNEYYDNDVMLTLLRLFCLYPHCYDKDIIKKILICVLYNINNVDMNMYMSLINSSLYDDNIKSVIYIYELIKNCQYKKLWNCINNNIGNEYNNCDYSYLKNDKNFICNIRKYILNTISISFESIYLKNMSEYLNIQDNTQLEQFLNENKWTIKMINHKGKDEQICYNGNIETVQNKKNINTYFTEDNIGSYITKLNH | not soluble |
| MAHHHHHHMDKGCSDCFFACHRYENWIDNQKEQFLKQRGEYENVINGTSSSSSSVGGKRQTRRTRSISSDDNGYESKFYKKLKERGYSEVKNFFEKLNKEKECQNFDDKGGEFDFNEHVDKDKEYKGTFYHSKYCEVCPGCGVKRDGNDWKEKSGGRCTRKKRYKILDDNNFNGIDVLSFGDKRNEIKQKIDTFCGGSNEEKEKLKEQWKCYEAQYVKEDKKEDEEDEDEVEEEDDLKDAGGLCTLQNKKK | not soluble |
| MAHHHHHHMDLNDFLRNTKTAAQDGSAGVRTLLSGHKRFADTNEASAEASSSGAGASGKRPRRSGTAEGLNIRAAQEALAQERGNTSAQAQQQRAQAELLSEQAAARMVHQVLEYVMQVELGGRHNAAKGGIAPFVPSAAQLAAEKAMWTPAAGYVIHHVVPATLDTSPHTLESLMSVTEKERVPDGVRALRGTLQVFDTERDLVGGVRTGMAPHLRTHVLEVLEKGLHGRAWLRDDAAVATQISALGKPTTPDKGPSSVLLFGDLATASVANSDATSSARDTASAGDEASKPRSKGFSLAAFLNGNDPTSSSSDGEDP | not soluble |
| MAHHHHHHMDLVQLQRILSTHDERVVKVFVNHIPEVGLRKIDDCVLEYMLKMLEGQTSSESYLPEEIIEETMKLYFREFDVFSDSEEKLNKSTAAICQQMLKEGITKKPSEESSRLASAVNIGRQYEESLKRATMIKSVGKVTTANTNEDWTWETKRSAAKDMRKKRREDEKKAILAEEYEAFLRKRGISNTTAVTKIHHKGEGTNYSTDIRCEAIHIQLGKQVLLDDTDLVLLTGHKYGLIGRNGAGKTTLLRALAERELEGVSPFMQILHVEQEIVAGAETPLEVLLATDVERAQLLHEEQELLKQNDTEANTRLNEVYARLDAIDAHSAEARAATILHGLSFTQDMMTSPTKQLSGGWRMRVALARALFVEPDVLLLDEPTNHLDLFAVLWLEQFLRDWQKTLIVVSHSRTFLNNVCSEIIHLIGHHLHYYNGNYDQFEITRVEQERQQKKQHAAQEKQRAHIQAFIDKFRYNANRAKMAQSRIKALERMEMVADVVTDPQFAFTFPDAEPVSGSFIEMVDCEFGYKPGVSLFKDVNMGIDESSRIVLVGANGVGKSTFMNVCTGALEPRSGTVVRNKKIRVAHFAQHNMESLTPQLSSLEFLRSKFPHMEDQQLRAHLGSMGLSGERALQPIYTLSGGQKSRLVLAWITFQKPHLLLLDEPTNHLDIDTVNALIEALLAYNGGLLVISHDEYFITSLCDDIFVCEDNTVKKFDGDFAEYRKHVVKMMK | soluble |
